Assay results as given in patent publication US20090124555A1, “USE OF HISTOGRANIN AND HISTOGRANIN-LIKE COMPOUNDS AS INHIBITORS OF P2X7 RECEPTOR FUNCTION AND AS ANTI-ARTHRITIC AGENTS” (priority 2005, published 2009).
Entries after “also recorded” stand apart in the source; their conditions may differ.

What was measured:
P2X7 receptor [1] = biological target: T1, P2X7 receptor (Mus musculus, UniProt Q9Z1M0); assay: ATP-induced extracellular release of IL-1.beta, IL-1.alpha and IL-6 in vivo (peritoneal lavage of LPS-primed mice); settings: 0.1 mg and 0.3 mg i.p. 15 min before ATP, FIG. 6B
T1 construct: from tissue; host or cells: living mice; peritoneal cavity (lavage fluid analysed)
T1 sequence (Q9Z1M0 1-595): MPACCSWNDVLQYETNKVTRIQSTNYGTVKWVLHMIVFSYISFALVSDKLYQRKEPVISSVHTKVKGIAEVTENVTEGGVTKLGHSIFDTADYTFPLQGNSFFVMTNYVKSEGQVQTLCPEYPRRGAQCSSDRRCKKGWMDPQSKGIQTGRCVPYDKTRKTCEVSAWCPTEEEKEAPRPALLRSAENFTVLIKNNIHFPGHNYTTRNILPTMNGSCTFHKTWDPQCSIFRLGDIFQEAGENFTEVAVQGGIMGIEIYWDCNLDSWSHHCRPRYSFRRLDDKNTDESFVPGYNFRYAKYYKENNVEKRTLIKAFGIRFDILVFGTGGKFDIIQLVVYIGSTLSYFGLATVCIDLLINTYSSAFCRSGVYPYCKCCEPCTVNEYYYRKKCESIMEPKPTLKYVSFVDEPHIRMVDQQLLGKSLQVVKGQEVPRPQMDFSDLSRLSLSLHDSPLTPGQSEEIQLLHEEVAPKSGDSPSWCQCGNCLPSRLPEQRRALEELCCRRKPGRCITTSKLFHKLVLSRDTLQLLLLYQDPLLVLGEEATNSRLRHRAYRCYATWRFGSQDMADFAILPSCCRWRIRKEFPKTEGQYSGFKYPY
Procedure: Groups of mice were injected intraperitoneally (i.p.) with 50 μg of LPS. Two hours after this LPS injection, mice were injected i.p. with either PBS or ATP (5 mM, adjusted to pH 7), or with HN compounds (0.1 mg and 0.3 mg) 15 minutes before ATP injection. Mice were sacrificed 30 minutes (IL-1.beta and IL-1.alpha) or 120 minutes (IL-6) after the ATP or PBS injection and peritoneal cavities were lavaged each with 3 ml PBS. Samples of peritoneal lavages were centrifuged, cell-free supernatants were collected and tested for the presence of IL-1.beta, IL-1.alpha and IL-6 using ELISA (R&D Systems, Minneapolis, Minn., and Biosource, Camarillo, Calif., respectively).

[2] = system: DBA/1 mice with collagen-induced arthritis; assay: Collagen-induced arthritis (CIA) in mice, clinical and histologic scoring; format: in vivo; settings: 0.3 mg i.p. daily before LPS and onset
Procedure: For induction of arthritis, DBA/1 mice (The Jackson Laboratory, Bar Harbor, Me.) were immunized intradermally at the base of the tail with bovine type II collagen (100 μg; Chondrex, Richmond, Wash.) emulsified in Freund's complete adjuvant (Chondrex, Richmond, Wash.). On day 21, the animals were boosted with an intradermal injection of 100 μg type II collagen. To synchronize the onset of arthritis, mice were subsequently injected i.p. with LPS (50 μg) (Yoshino et al. (2000) J. Immunol. 163:3417-3422).
To test the subject of the present invention, mice were divided in various groups: mice injected with saline (negative control), mice injected with collagen and LPS (positive control), mice injected with collagen and treated i.p. daily with HN compound starting 2 days before i.p. injection of LPS and onset of arthritis, and mice injected with collagen and LPS, and treated i.p. daily with RN compound after the onset of arthritis as monitored by the presence of a positive clinical score index as described below.
The incidence of arthritis was monitored daily by macroscopic clinical scoring on a 0-3 scale where 0=normal: 1=slight swelling and erythema. […] Limb swelling was also measured with calipers (Wallace et al. (1999) J. Immunol. 162:5547-5555). […] Cartilage destruction was evaluated as the extent of loss of glycosaminoglycan matrix, death of chondrocytes, thinning and destruction. […]

P2X7 receptor [3] = biological target: T1, P2X7 receptor; assay: P2X7 receptor-stimulated IL-1.beta release ex vivo, blood-based IL-1.beta assay in CIA mice; settings: blood of i.p. treated CIA mice, FIG. 12C
Procedure: P2X7 receptor-stimulated IL-1 release ex vivo was performed with a blood-based IL-1.beta assay (Perregaux et al. (2000) J. Immunol. 165:4615-4623). Blood was collected from mice in each group in heparin-containing tubes. A total of 120 μl of blood was placed into an individual well of a 96-well plate and diluted with 120 μl RPMI 1640 medium containing 25 mM HEPES and 1% dialysed FBS. The diluted blood samples were incubated for 3 h in the presence and absence of LPS (1 μg/ml) at 37° C. in 5% CO2. ATP (5 mM, pH 7) was then added as a secretion stimulus and the mixtures were incubated at 37° C. for an additional 2 h. The 96-well plates were then centrifuged at 700×g for 10 min at 4° C., and the resulting plasma samples were collected and assayed for their IL-1.beta content by ELISA (R&D Systems, Minneapolis, Minn.).

P2X7 receptor [4] = biological target: T2, P2X7 receptor (Rattus norvegicus, UniProt Q64663); assay: ATP-induced membrane permeabilization and pore formation (ethidium bromide uptake) in alveolar macrophages; format: cell-based; settings: rat alveolar macrophages, FIG. 1A
T2 construct: Alveolar macrophages (AM) were recovered from normal rats by bronchoalveolar lavage; endogenous in cells; host or cells: primary alveolar macrophages from male Wistar rats (bronchoalveolar lavage)
T2 sequence (Q64663 1-595): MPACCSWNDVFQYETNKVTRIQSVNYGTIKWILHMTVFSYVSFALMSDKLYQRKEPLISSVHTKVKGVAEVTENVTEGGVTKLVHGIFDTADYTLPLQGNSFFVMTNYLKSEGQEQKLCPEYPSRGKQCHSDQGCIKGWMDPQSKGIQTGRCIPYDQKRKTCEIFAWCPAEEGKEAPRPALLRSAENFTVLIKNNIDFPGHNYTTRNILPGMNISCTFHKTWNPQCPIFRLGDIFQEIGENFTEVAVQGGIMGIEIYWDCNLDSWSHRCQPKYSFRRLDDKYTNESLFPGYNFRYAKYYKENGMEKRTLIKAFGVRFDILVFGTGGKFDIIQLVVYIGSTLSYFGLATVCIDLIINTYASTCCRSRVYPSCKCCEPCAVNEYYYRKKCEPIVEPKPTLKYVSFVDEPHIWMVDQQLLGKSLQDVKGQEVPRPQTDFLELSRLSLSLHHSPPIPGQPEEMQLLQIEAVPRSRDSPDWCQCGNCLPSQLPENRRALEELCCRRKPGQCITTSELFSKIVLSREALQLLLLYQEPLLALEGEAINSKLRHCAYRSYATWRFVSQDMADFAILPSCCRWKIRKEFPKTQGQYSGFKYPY
Procedure: Alveolar macrophages (AM) were recovered from normal rats by bronchoalveolar lavage (BAL) as described previously (Lemaire (1991) Am. J. Pathol. 138:487-495). The lungs were lavaged with 7 ml-aliquots of sterile phosphate buffered saline (pH 7.4; Wisent, St. Bruno, QC), and BAL cells were obtained by centrifugation at 200×g at 4° C. for 5 minutes. The cells were resuspended in RPMI 1640 medium (Wisent, St-Bruno, QC) supplemented with 0.5% dialysed fetal bovine serum (Wisent. St-Bruno, QC), 0.005% gentamycin (Schering Canada Inc. Pointe Claire. QC) and 0.8% HEPES (Sigma Chemical Co., St-Louis, MO) which will henceforth be referred to as complete culture medium (CM).
Freshly isolated AM (1×10^5) were incubated in 200 μl complete medium in 96 wells tissue culture plates for 24 h. Following centrifugation, medium was replaced with saline solution containing 125 mM NaCl, 5 mM KCL, 1 mM MgSO4, 1 mM Na2HPO4, 5.5 mM glucose, 5 mM NaHCO3, 1 mM CaCl2 and 20 mM Hepes, pH 7.6. Ethidium bromide was added to a final concentration of 20 μM and AM were stimulated with ATP (5 mM, Sigma), 3′-O-(4-benzoylbenzoyl ATP (BzATP) (0.5 mM, Molecular Probes) or uridine 5′-triphosphate (UTP) (Sigma), at 37° C. for 5 minutes. In some experiments, cells were pre-treated with oxidized ATP (oATP, 0.1 mM, Sigma) for 2 h or Brilliant Blue G (BBG, 5×10^−9M, Sigma) for 5 minutes, or HN compounds for 5 minutes before ATP stimulation. After ATP stimulation, the plate was centrifuged (200×g, 1 minute), culture supernatants were replaced with fresh buffer and the fluorescence was analyzed using a Zeiss Axiovert S1100 TV inverted microscope equipped with a rhodamine filter and a 32× objective. Images were captured and analysed with the Northern Eclipse image analysis software. Data are expressed as percentage of cells that become permeabilized to ethidium bromide.

Compound | IL-1.beta in peritoneal lavage in response to ATP, various HN compounds (P2X7 receptor [1]) | arthritis score index ([2]; FIG. 12A) | histological score index ([2]; both knees, FIG. 12B) | ATP-induced IL-1.beta release in peripheral blood (P2X7 receptor [3]; ATP without LPS ex vivo) | LPS+ATP-induced IL-1.beta release in peripheral blood (P2X7 receptor [3]; LPS 3 h then ATP 2 h ex vivo) | inhibition of ATP-induced pore formation (ethidium bromide uptake) (P2X7 receptor [4]; ATP 5 mM, 5 min, compound 10^−9M) | inhibition of BzATP-induced pore formation (P2X7 receptor [4]; BzATP 0.5 mM)
N=C(N)NCCC[C@H](Nc1ccccc1NC(=O)Cc1ccc(O)cc1)C(N)=O [C-11, N-5-guanidinopentanamide-(2S)-yl-2-N (p-hydroxyphenylacetyl)phenylenediamine] | inactive; also recorded: did not inhibit | did not reduce | did not reduce |  |  |  | 
cyclic (-Gly-Ala-Tyr-D-Arg-) (GAYR; HELM PEPTIDE1{G.A.Y.[dR]}$PEPTIDE1,PEPTIDE1,1:R1-4:R2$$$V2.0; SMILES C[C@@H]1NC(=O)CNC(=O)[C@@H](CCCNC(=N)N)NC(=O)[C@H](Cc2ccc(O)cc2)NC1=O) [C-9] | reduced levels |  |  | inhibit | inhibit | inhibited significantly | inhibit
